In US20220387578A1:

Assays:
[1] = molecular target: H3 HA A/Texas/50/2012, recombinant soluble trimer (influenza A virus)
[2] = molecular target: H1 HA A/Solomon Islands/03/2006 (H1N1), recombinant soluble trimer (influenza A virus)
[3] = molecular target: H1 HA A/Texas/36/1991 (H1N1), recombinant soluble trimer (influenza A virus)

Substance | EC50 [1] [µg/mL] | EC50 [2] [µg/mL] | EC50 [3] [µg/mL] | EC50 relative to wild type rFluA-20 [2] [fold]
rFluA-20 light chain mutant N53A (antibody) | 0.09 | 0.05 | 0.04 | 
rFluA-20 heavy chain mutant C101A (antibody) | 0.39 | 0.2 | 0.15 | 
rFluA-20 light chain mutant Q55A (antibody) |  |  | 0.23 | > 100
